T1: human VEGF-C-his molecules (Cat #:VEC-H4225, Acrobiosystems) (human, UniProt P49767 103-227, limits assumed)
T1 construct: Bought protein; not shown: his tag
T1 sequence (looked up): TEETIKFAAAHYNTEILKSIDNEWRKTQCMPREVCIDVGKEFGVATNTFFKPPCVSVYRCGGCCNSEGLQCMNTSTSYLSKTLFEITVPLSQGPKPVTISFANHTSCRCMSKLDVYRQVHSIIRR

T2: human TIGIT on HEK293A/human TIGIT cells (human, UniProt Q495A1 22-244)
T2 construct: also called cell surface human TIGIT; human TIGIT-expressing HEK293A cells
T2 sequence: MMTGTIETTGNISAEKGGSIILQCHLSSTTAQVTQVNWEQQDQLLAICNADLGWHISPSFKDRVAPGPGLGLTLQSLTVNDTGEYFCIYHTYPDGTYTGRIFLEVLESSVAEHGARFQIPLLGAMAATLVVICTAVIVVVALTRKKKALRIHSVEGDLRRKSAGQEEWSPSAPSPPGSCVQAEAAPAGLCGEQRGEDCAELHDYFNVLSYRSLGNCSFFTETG

T3: human TIGIT-his protein (Cat #:10917-H08H, Sino Biological) (human, UniProt Q495A1 22-141)
T3 construct: Bought soluble protein; also called TIGIT molecules; not shown: his tag
T3 sequence: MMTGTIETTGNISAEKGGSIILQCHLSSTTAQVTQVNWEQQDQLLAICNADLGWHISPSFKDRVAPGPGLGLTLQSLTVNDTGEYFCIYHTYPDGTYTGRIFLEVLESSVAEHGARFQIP

T4: TIGIT-mFc molecules (Cat #: 10917-H38H, Sino Biological) (UniProt Q495A1 22-141)
T4 construct: not shown: mFc (mouse Fc)
T4 sequence (looked up): T3 sequence

B1: bevacizumab (antibody, V domains shown)
VH: EVQLVESGGGLVQPGGSLRLSCAASGYTFTNYGMNWVRQAPGKGLEWVGWINTYTGEPTYAADFKRRFTFSLDTSKSTAYLQMNSLRAEDTAVYYCAKYPHYYGSSHWYFDVWGQGTLVTVSS
VL: DIQMTQSPSSLSASVGDRVTITCSASQDISNYLNWYQQKPGKAPKVLIYFTSSLHSGVPSRFSGSGSGTDFTLTISSLQPEDFATYYCQQYSTVPWTFGQGTKVEIKR
notes: also called Avastin bevacizumab
B2: 70E11VH2VL4 (antibody, human IgG1, kappa, V domains shown)
VH: QVQLVQSGAEVKKPGASVKVSCKASGYTFTSYNVHWVRQAPGQGLEWMGTIYPGNLATSYNQKFKGRVTLTADTSTSTVYMELSSLRSEDTAVYYCARSGTMDYWGQGTTVTVSS
VL: EIVLTQSPGTLSLSPGERATMTCRASSSISSTYLHWYQQKPGASPKLLIYNTQNLASGVPARFSGSGSGTSYTLTISRLEPEDFAVYYCQQFGGYPLITFGAGTKLELKR
notes: Humanized anti-TIGIT antibody, human IgG1 and kappa constant regions; also called anti-TIGIT antibody 70E11VH2VL4; monospecific anti-TIGIT antibody
B3: MBS310-6 (bispecific antibody, human IgG1, kappa)
heavy 1: not shown
heavy 2: not shown
light 1: not shown
light 2: EIVLTQSPGTLSLSPGERATMTCRASSSISSTYLHWYQQKPGASPKLLIYNTQNLASGVPARFSGSGSGTSYTLTISRLEPEDFAVYYCQQFGGYPLITFGAGTKLELKRTVAAPSVFIFPPSDEQLKSGTASVVCLLNNFYPREAKVQWKVDNALQSGNSQESVTEQDSKDSTYSLSSTLTLSKADYEKHKVYACEVTHQGLSSPVTKSFNRGEC
notes: two half antibodies (knob and hole) expressed in HEK-293F cells and assembled in vitro; also called asymmetrical anti-VEGF/TIGIT bispecific antibody; anti-TIGIT/VEGF bispecific antibody
B4: MBS310-4 (bispecific antibody, human IgG1, kappa)
heavy: not shown
light: B3 light 2
notes: also called symmetrical anti-VEGF/TIGIT bispecific antibody

Experiments:
[1] = target: T1, human VEGF-C-his molecules (Cat …); test: ELISA, plate coated with human VEGF-C-his, antibody titrated (axis labelled MFI)
Experimental: (§1) Briefly, an ELISA plate was coated with 100 μl 500 ng/ml human VEGF-A molecules (Cat #:11066-HNAN, Sino Biological, CN), mouse VEGF-A molecules (Cat #:50159-MNAB, Sino Biological, CN), human VEGF-B-his molecules (Cat #:VE6-H5225, Acrobiosystems Co., CN) and human VEGF-C-his molecules (Cat #:VEC-H4225, Acrobiosystems Co., CN) respectively overnight at 4° C. […] The ELISA plate was added with freshly prepared Ultra-TMB (Cat #:555214, BD, USA), and left still for 5 min for color development. The absorbance was read at 450 nm using SpectraMax® i3X microplate reader.

[2] = target: T5, monkey TIGIT on HEK293A/monkey TIGIT cells (monkey); test: FACS on HEK293A/monkey TIGIT cells, antibody titrated, MFI
T5 construct: also called cell surface monkey TIGIT
T5 sequence (chain, as listed by the source limits assumed): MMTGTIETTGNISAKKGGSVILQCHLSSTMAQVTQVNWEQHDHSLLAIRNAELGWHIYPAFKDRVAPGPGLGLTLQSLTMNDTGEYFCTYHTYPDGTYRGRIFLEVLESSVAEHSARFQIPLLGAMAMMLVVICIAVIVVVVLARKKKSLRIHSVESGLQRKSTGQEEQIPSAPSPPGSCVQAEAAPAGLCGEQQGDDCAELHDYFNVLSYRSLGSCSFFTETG
Experimental: (§2) Briefly, 10⁵ HEK293A cells in 100 μl cell culture medium were seeded onto a 96-well plate, which was later added with 50 μl serially diluted bispecific antibodies of the disclosure. After incubation at 4° C. for 1 h, the plate was washed with PBS for three times, added with APC-goat-anti-mouse IgG (1:500, Cat #: 405308, BioLegend, USA). After incubation at 4° C. for 1 h, the plate was washed with PBS for three times, and measured for fluorescence using a cytometry (BD).

[3] = target: T2, human TIGIT on HEK293A/human TIGIT cells; test: FACS on HEK293A/human TIGIT cells, antibody titrated, MFI
Experimental: as §2

[4] = target: T2, human TIGIT on HEK293A/human TIGIT cells; test: cell-based or functional assay
[5] = target: T3, human TIGIT-his protein (Cat …); test: SPR (BIAcore 8K), human TIGIT-his coupled to the chip, antibody injected
Text: (§3) Using BIAcore™ 8K instrument (GE Life Sciences, US), the binding affinity of the bispecific molecules of the disclosure to human TIGIT and VEGF was quantitatively measured. Briefly, 100-200 response units (RU) of human TIGIT-his protein (Cat #:10917-H08H, Sino Biological, CN) or human VEGF-A (Cat #:11066-HNAN, Sino Biological, CN) were coupled to CMS biosensor chips (Cat #:BR-1005-30, GE Life Sciences, US). The un-reacted groups were then blocked with 1M ethanolamine Serially diluted antibodies at concentrations ranging from 0.3 μM to 10 μM were injected into the SPR running buffer (HBS-EP buffer, pH7.4, Cat #:BR-1006-69, GE Life Sciences, US) at 30 μL/min. The binding affinity was calculated with the RUs of blank controls subtracted, and the association rate (kₐ) and dissociation rate (kd) were determined using the one-to-one Langmuir binding model (BIA Evaluation Software, GE Life Sciences, US). The equilibrium dissociation constant KD was calculated as the kd/kₐ ratio.

[6] = target: T4, TIGIT-mFc molecules (Cat #: 10917-H38H, …); test: FACS blocking assay: antibody titrated and premixed with 5 ug/ml TIGIT-mFc, binding of TIGIT-mFc to human PVR on A549/human PVR cells
Experimental: After incubation at 4° C. for 1 h, the plate was washed with PBS for three times, and then added with PE-goat-anti-mouse IgG (1:500, Cat #:31861, Thermofisher, USA). After incubation at 4° C. for 1 h, the plate was washed with PBS for three times, and measured for fluorescence using a cytometry (BD).

[7] = target: T2, human TIGIT on HEK293A/human TIGIT cells; test: FACS on HEK293A/human TIGIT cells, antibody titrated, no free VEGF-A
Experimental: as §2, with “of the disclosure and 50 μl free human VEGF-A molecules at the final concentration of 0 ng/ml, 50 ng/ml or 50 μg/ml (Cat #:11066-HNAN, Sino Biological, CN). After incubation” for “of the disclosure. After incubation”, “three times, and added with” for “three times, added with”

[8] = target: T2, human TIGIT on HEK293A/human TIGIT cells; test: as above; remark: listed apart in the source
Experimental: as §2, with “of the disclosure and 50 μl free human VEGF-A molecules at the final concentration of 0 ng/ml, 50 ng/ml or 50 μg/ml (Cat #:11066-HNAN, Sino Biological, CN). After incubation” for “of the disclosure. After incubation”, “three times, and added with” for “three times, added with”

[9] = target: T2, human TIGIT on HEK293A/human TIGIT cells; test: FACS on HEK293A/human TIGIT cells, antibody titrated in the presence of 50 ng/ml free human VEGF-A
Experimental: as §2, with “of the disclosure and 50 μl free human VEGF-A molecules at the final concentration of 0 ng/ml, 50 ng/ml or 50 μg/ml (Cat #:11066-HNAN, Sino Biological, CN). After incubation” for “of the disclosure. After incubation”, “three times, and added with” for “three times, added with”

[10] = target: T6, human VEGF-A molecules (Cat #:11066-HNAN, Sino Biological) (human, UniProt P15692-4 27-191); test: SPR (BIAcore 8K), human VEGF-A coupled to the chip, antibody injected
T6 construct: Bought protein; also called human/monkey VEGF; VEGF molecules
T6 sequence (P15692 other isoform, or with tags, fused parts or gaps limits assumed): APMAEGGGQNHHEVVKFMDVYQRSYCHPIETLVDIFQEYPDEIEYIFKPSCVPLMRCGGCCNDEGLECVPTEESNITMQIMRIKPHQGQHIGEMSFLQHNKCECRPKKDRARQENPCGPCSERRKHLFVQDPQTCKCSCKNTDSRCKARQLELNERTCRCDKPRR
Text: as §3

[11] = target: T2, human TIGIT on HEK293A/human TIGIT cells; test: FACS on HEK293A/human TIGIT cells, antibody titrated in the presence of 50 ug/ml free human VEGF-A
Experimental: as §2, with “of the disclosure and 50 μl free human VEGF-A molecules at the final concentration of 0 ng/ml, 50 ng/ml or 50 μg/ml (Cat #:11066-HNAN, Sino Biological, CN). After incubation” for “of the disclosure. After incubation”, “three times, and added with” for “three times, added with”

[12] = target: T6, human VEGF-A molecules (Cat …); test: ELISA, plate coated with human VEGF-A, antibody titrated, OD450
Experimental: as §1

Binder | binding result [1] | EC50 (read off the curve) [2] | EC50 (read off the curve) [3] | EC50, NK92 (NK92MI-CD16a) cell-mediated ADCC, LDH release [4] | EC50, PBMC-mediated ADCC, death rate of GFP+ cells by FACS [4] | Kd [5] | IC50 (read off the curve) [6] | EC50 (read off the curve) [7] | EC50 (read off the curve) [8] | EC50 (read off the curve) [9] | Kd [10] | EC50 (read off the curve) [11] | EC50 (read off the curve) [12] | binding result [12]
B1 | no binding (tested: about 100 nM (LOG.Con about 2)) |  |  |  |  |  |  |  |  |  |  |  |  | 
B2 |  | ~0.2 nM | ~0.4 nM | 0.142 nM | 0.162 nM | 8.05 nM | ~2 nM |  |  |  |  |  |  | 
B3 | no binding (tested: about 100 nM (LOG.Con about 2)) | ~1 nM | ~0.8 nM | 0.268 nM | 0.183 nM | 12.8 nM | ~4 nM | ~0.9 nM | ~1 nM | ~1 nM | 0.166 nM | ~0.8 nM | ~0.6 nM | 
B4 |  |  |  |  |  |  |  |  |  |  |  |  |  | binds
